In the supplement of paper PMC10126150:
± gives the standard deviation of the averaged measurements.

System: ATP
Assay: switch fluorescence ratio, 500 uM ATP over buffer (Cy3 cluster intensity, sum of 5 cycles each) (fold (ratio)); higher = stronger signal-on switching upon ATP binding; sequences stand for … in TCGTCGGCAGCGTCAGATGTGTATAAGAGACAGTTTTTTTTTTTTTTTTTTTTTTTTT…TC
Details: aptamer strand: ATP DNA aptamer (quencher-CACCTGGGGGAGTATTGCGGAGGAAGG + anchor), 100 nM annealed; ATP concentration: 500 uM
How it was run: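 Imaging in selection buffer was followed by imaging after 15 min with 500 uM ATP at 22 °C, for Cy3-labelled switching-strand clusters annealed to 100 nM quencher-labelled ATP aptamer on a modified Illumina MiSeq flow-cell. Five of these buffer/ATP cycles ran, separated by NaOH stripping and re-annealing. The fluorescence ratio per cluster is summed target-cycle over summed buffer-cycle Cy3 intensity, averaged per switch-domain sequence; clusters outside 100-1000 RFU were removed.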
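Note: ATP exposure 15 min at 22 °C before imaging.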

Q: How did the switch fluorescence ratio turn out when TTTGAGTAGG was run?
A: 0.992 ± 0.038

Q: How did the switch fluorescence ratio turn out when TTTGAGTATA was run?
A: 0.992 ± 0.031

Q: With TTTGAGTGTA as the sequence, how does the switch fluorescence ratio read?
A: 0.969 ± 0.05

Q: With TTTGATAACG as the sequence, how does the switch fluorescence ratio read?
A: 0.987 ± 0.012

Q: How did the switch fluorescence ratio turn out when TTTGATAAGT was run?
A: 1.06 ± 0.07

Q: TTTGATACCT was tested. Which switch fluorescence ratio did it give?
A: 1.266 ± 0.0022

Q: For TTTGATACGC, which switch fluorescence ratio is on record?
A: 1.04 ± 0.031

Q: For TTTGATAGAT, which switch fluorescence ratio is on record?
A: 0.977 ± 0.012

Q: For TTTGATCAGC, which switch fluorescence ratio is on record?
A: 0.983 ± 0.031

Q: Which switch fluorescence ratio does the source give for TTTGATCGCA here?
A: 0.999 ± 0.025

Q: TTTGATGGGC was tested. Which switch fluorescence ratio did it give?
A: 0.9911 ± 0.0075

Q: Which switch fluorescence ratio does the source give for TTTGATGTAG here?
A: 1.01 ± 0.011

Q: How did the switch fluorescence ratio turn out when TTTGATTCTT was run?
A: 1.004 ± 0.0033

Q: How did the switch fluorescence ratio turn out when TTTGATTGAG was run?
A: 0.953 ± 0.012

Q: For TTTGATTGTG, which switch fluorescence ratio is on record?
A: 1.03 ± 0.029

Q: How did the switch fluorescence ratio turn out when TTTGATTTGG was run?
A: 0.921 ± 0.022

Q: With TTTGCAAACA as the sequence, how does the switch fluorescence ratio read?
A: 1 ± 0.061

Q: How did the switch fluorescence ratio turn out when TTTGCACTTT was run?
A: 1 ± 0.046

Q: TTTGCAGCC was tested. Which switch fluorescence ratio did it give?
A: 1.05 ± 0.066

Q: With TTTGCAGCGC as the sequence, how does the switch fluorescence ratio read?
A: 0.998 ± 0.021

Q: For TTTGCAGGGA, which switch fluorescence ratio is on record?
A: 1.06 ± 0.1

Q: For TTTGCAGT, which switch fluorescence ratio is on record?
A: 1.1 ± 0.12

Q: With TTTGCATATA as the sequence, how does the switch fluorescence ratio read?
A: 1.09 ± 0.11

Q: For TTTGCATGAA, which switch fluorescence ratio is on record?
A: 0.992 ± 0.011

Q: With TTTGCATGTA as the sequence, how does the switch fluorescence ratio read?
A: 1.02 ± 0.027

Q: Which switch fluorescence ratio does the source give for TTTGCCCCTT here?
A: 1.02 ± 0.03

Q: For TTTGCCTGCT, which switch fluorescence ratio is on record?
A: 1.01 ± 0.043

Q: TTTGCGAGCG was tested. Which switch fluorescence ratio did it give?
A: 1.01 ± 0.023

Q: TTTGCGGTGG was tested. Which switch fluorescence ratio did it give?
A: 1.01 ± 0.075

Q: With TTTGCGTAAG as the sequence, how does the switch fluorescence ratio read?
A: 1.02 ± 0.033

Q: Which switch fluorescence ratio does the source give for TTTGCGTGCA here?
A: 0.975 ± 0.011

Q: Which switch fluorescence ratio does the source give for TTTGCGTGTT here?
A: 1.019 ± 0.0086

Q: Which switch fluorescence ratio does the source give for TTTGCTAAA here?
A: 1.01 ± 0.046

Q: How did the switch fluorescence ratio turn out when TTTGCTCACG was run?
A: 1.01 ± 0.029

Q: TTTGCTCTTA was tested. Which switch fluorescence ratio did it give?
A: 1 ± 0.056

Q: TTTGCTGCAG was tested. Which switch fluorescence ratio did it give?
A: 1.003 ± 0.003

Q: How did the switch fluorescence ratio turn out when TTTGCTGGTG was run?
A: 1.1 ± 0.026

Q: How did the switch fluorescence ratio turn out when TTTGCTTA was run?
A: 0.995 ± 0.012

Q: Which switch fluorescence ratio does the source give for TTTGCTTATG here?
A: 0.9924 ± 0.0045

Q: TTTGGAAAGC was tested. Which switch fluorescence ratio did it give?
A: 1.04 ± 0.019

Q: TTTGGAAGTT was tested. Which switch fluorescence ratio did it give?
A: 0.9817 ± 0.0035

Q: How did the switch fluorescence ratio turn out when TTTGGAATAC was run?
A: 2.92 ± 1

Q: For TTTGGAATCA, which switch fluorescence ratio is on record?
A: 1.008 ± 0.0098

Q: With TTTGGAATGG as the sequence, how does the switch fluorescence ratio read?
A: 0.991 ± 0.054

Q: TTTGGACGGC was tested. Which switch fluorescence ratio did it give?
A: 1.04 ± 0.065

Q: TTTGGACGGG was tested. Which switch fluorescence ratio did it give?
A: 0.995 ± 0.033

Q: For TTTGGAGATA, which switch fluorescence ratio is on record?
A: 1.03 ± 0.032

Q: With TTTGGAGCAG as the sequence, how does the switch fluorescence ratio read?
A: 1.14 ± 0.13

Q: TTTGGAGGGT was tested. Which switch fluorescence ratio did it give?
A: 1.02 ± 0.064

Q: How did the switch fluorescence ratio turn out when TTTGGAGGTA was run?
A: 1.01 ± 0.059

Q: For TTTGGAGTGC, which switch fluorescence ratio is on record?
A: 1 ± 0.05

Q: TTTGGAGTT was tested. Which switch fluorescence ratio did it give?
A: 1 ± 0.02

Q: TTTGGATATA was tested. Which switch fluorescence ratio did it give?
A: 0.9726 ± 0.0041

Q: How did the switch fluorescence ratio turn out when TTTGGATATG was run?
A: 0.992 ± 0.037

Q: TTTGGATGAC was tested. Which switch fluorescence ratio did it give?
A: 1.01 ± 0.063

Q: Which switch fluorescence ratio does the source give for TTTGGATGGC here?
A: 1.02 ± 0.057

Q: How did the switch fluorescence ratio turn out when TTTGGATGTT was run?
A: 1 ± 0.011

Q: TTTGGATTAG was tested. Which switch fluorescence ratio did it give?
A: 0.9746 ± 0.0037

Q: How did the switch fluorescence ratio turn out when TTTGGATTTG was run?
A: 1.03 ± 0.027

Q: How did the switch fluorescence ratio turn out when TTTGGCACAC was run?
A: 1.046 ± 0.0048

Q: Which switch fluorescence ratio does the source give for TTTGGCAGGG here?
A: 0.996 ± 0.024

Q: TTTGGCATCA was tested. Which switch fluorescence ratio did it give?
A: 1.04 ± 0.013

Q: How did the switch fluorescence ratio turn out when TTTGGCCGGT was run?
A: 1.04 ± 0.056

Q: Which switch fluorescence ratio does the source give for TTTGGCGAAA here?
A: 1.01 ± 0.019

Q: For TTTGGCGGAA, which switch fluorescence ratio is on record?
A: 1.04 ± 0.011

Q: TTTGGCGTTT was tested. Which switch fluorescence ratio did it give?
A: 1.01 ± 0.024

Q: Which switch fluorescence ratio does the source give for TTTGGCTGGA here?
A: 1.04 ± 0.072

Q: How did the switch fluorescence ratio turn out when TTTGGCTGTG was run?
A: 0.973 ± 0.029

Q: Which switch fluorescence ratio does the source give for TTTGGGAAAG here?
A: 0.978 ± 0.032

Q: How did the switch fluorescence ratio turn out when TTTGGGAATG was run?
A: 1.06 ± 0.13

Q: With TTTGGGACCT as the sequence, how does the switch fluorescence ratio read?
A: 1 ± 0.048

Q: With TTTGGGACGG as the sequence, how does the switch fluorescence ratio read?
A: 0.999 ± 0.065

Q: How did the switch fluorescence ratio turn out when TTTGGGAGTT was run?
A: 1.05 ± 0.19

Q: Which switch fluorescence ratio does the source give for TTTGGGATAC here?
A: 1.24 ± 0.28

Q: TTTGGGATGG was tested. Which switch fluorescence ratio did it give?
A: 0.983 ± 0.046

Q: Which switch fluorescence ratio does the source give for TTTGGGCCGT here?
A: 0.971 ± 0.043

Q: With TTTGGGGATT as the sequence, how does the switch fluorescence ratio read?
A: 1.01 ± 0.036

Q: With TTTGGGGCGA as the sequence, how does the switch fluorescence ratio read?
A: 1.02 ± 0.031

Q: For TTTGGGGCGC, which switch fluorescence ratio is on record?
A: 1.01 ± 0.048

Q: With TTTGGGGCGG as the sequence, how does the switch fluorescence ratio read?
A: 0.989 ± 0.038

Q: For TTTGGGGGCG, which switch fluorescence ratio is on record?
A: 0.983 ± 0.081

Q: Which switch fluorescence ratio does the source give for TTTGGGGTTG here?
A: 0.999 ± 0.037

Q: TTTGGGTGGG was tested. Which switch fluorescence ratio did it give?
A: 0.985 ± 0.041

Q: With TTTGGGTGTG as the sequence, how does the switch fluorescence ratio read?
A: 0.983 ± 0.016

Q: TTTGGGTTAT was tested. Which switch fluorescence ratio did it give?
A: 1.08 ± 0.21

Q: For TTTGGGTTTC, which switch fluorescence ratio is on record?
A: 0.977 ± 0.017

Q: How did the switch fluorescence ratio turn out when TTTGGTAATT was run?
A: 1.03 ± 0.034

Q: For TTTGGTAGTT, which switch fluorescence ratio is on record?
A: 0.987 ± 0.015

Q: How did the switch fluorescence ratio turn out when TTTGGTCGGG was run?
A: 1.01 ± 0.03

Q: TTTGGTGAAC was tested. Which switch fluorescence ratio did it give?
A: 1 ± 0.022

Q: For TTTGGTGGAA, which switch fluorescence ratio is on record?
A: 1.01 ± 0.044

Q: Which switch fluorescence ratio does the source give for TTTGGTGTCC here?
A: 0.984 ± 0.017

Q: Which switch fluorescence ratio does the source give for TTTGGTTATA here?
A: 1 ± 0.012

Q: For TTTGGTTCCT, which switch fluorescence ratio is on record?
A: 1.014 ± 0.0091

Q: How did the switch fluorescence ratio turn out when TTTGGTTCTG was run?
A: 1.01 ± 0.012

Q: How did the switch fluorescence ratio turn out when TTTGGTTGGA was run?
A: 0.992 ± 0.038

Q: For TTTGTAAAGA, which switch fluorescence ratio is on record?
A: 1 ± 0.018

Q: With TTTGTAAGGT as the sequence, how does the switch fluorescence ratio read?
A: 1.032 ± 0.0089

Q: With TTTGTAAGTA as the sequence, how does the switch fluorescence ratio read?
A: 1 ± 0.013

Q: How did the switch fluorescence ratio turn out when TTTGTACGCA was run?
A: 1.71 ± 1

Q: With TTTGTACTGG as the sequence, how does the switch fluorescence ratio read?
A: 1.01 ± 0.041
